Laboratory results reported in patent US20180258181A1 (Bayer, published 2018).

Tests used:
[1] = biological target: T1, mesothelin on CHO-A9 cells (CHO-K1 stably transfected with the GPI-anchored C-terminal part of mesothelin) (Homo sapiens (Human), UniProt Q13421 287-598, GPI anchor); assay: live cell ELISA, IgG1 on CHO-A9 cells
T1 construct: In the immunoblots the protein stood in a denatured cell extract; also called mesothelin-expressing CHO-A9 cells

[2] = biological target: T1, mesothelin on CHO-A9 cells (CHO-K1 …); assay: FACS with Scatchard analysis, IgG1 on CHO-A9 cells
[3] = biological target: T2, human mesothelin (recombinant, soluble, purified; 40 kDa C-terminal polypeptide of the mesothelin precursor) (human, UniProt Q13421 296-598, limits assumed); assay: Biacore pairwise binding, mesothelin (50 nM) captured by immobilized MF-T, second antibody 200 nM
T2 construct: also called soluble mesothelin
T2 sequence (Q13421 other isoform, or with tags, fused parts or gaps limits assumed): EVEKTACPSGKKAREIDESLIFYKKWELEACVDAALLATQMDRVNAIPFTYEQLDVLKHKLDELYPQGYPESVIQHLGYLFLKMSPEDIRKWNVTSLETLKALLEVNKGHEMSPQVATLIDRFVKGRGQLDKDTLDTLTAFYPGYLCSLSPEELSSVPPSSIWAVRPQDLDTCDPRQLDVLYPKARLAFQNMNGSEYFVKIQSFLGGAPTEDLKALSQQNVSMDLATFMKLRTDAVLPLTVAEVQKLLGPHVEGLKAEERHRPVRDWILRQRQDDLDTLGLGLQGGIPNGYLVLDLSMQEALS
Protocol: Competitive binding of pairs of antibodies was determined by immobilizing one antibody to the sensor chip, binding soluble mesothelin to this antibody and immediately binding a second antibody to mesothelin. Pairs of antibodies which recognize the same or overlapping epitopes on mesothelin cannot bind simultaneously. All combinations of antibody pairs were tested. Representative data for MF-T are shown (A). Panel B depicts the relative positions of epitopes of seven anti-mesothelin antibodies, in which competition is depicted by overlapping circles.
Epitope grouping experiments were performed using Biacore by monitoring simultaneous binding of pairs of anti-mesothelin antibodies to immobilized mesothelin. Briefly, the first antibody was covalently immobilized to the sensor chip through primary amine coupling using n-hydroxysuccinamide ([…]) and N-ethyl-N′-dimethylaminopropyl carbodiimide (EDC). Unoccupied binding sites on the surface were then blocked with ethanolamide. Soluble mesothelin was captured on the surface via the immobilized antibody, therefore, the epitope of the capture antibody is blocked for all bound mesothelin molecules. A second antibody was immediately passed over the surface to bind to the immobilized mesothelin. Two antibodies recognizing the same or overlapping epitopes cannot bind to the mesothelin, whereas antibodies with distinct epitopes are able to bind. […]

T1 sequence (Q13421 other isoform, or with tags, fused parts or gaps limits assumed): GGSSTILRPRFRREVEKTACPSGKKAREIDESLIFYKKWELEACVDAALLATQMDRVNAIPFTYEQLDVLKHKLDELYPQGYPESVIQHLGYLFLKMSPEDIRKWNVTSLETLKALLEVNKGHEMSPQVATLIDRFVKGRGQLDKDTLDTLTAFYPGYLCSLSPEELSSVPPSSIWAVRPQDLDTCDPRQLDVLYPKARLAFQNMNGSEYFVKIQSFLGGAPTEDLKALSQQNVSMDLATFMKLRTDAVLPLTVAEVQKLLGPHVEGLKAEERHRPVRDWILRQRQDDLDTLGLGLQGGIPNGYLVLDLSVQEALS

| Binder | EC50 [1] | EC50 [2] | binding result [3] |
| --- | --- | --- | --- |
| MF-L IgG (antibody, V domains shown) VH: QVQLVESGGGLVQPGGSLRLSCAASGFTFSDYAMSWVRQAPGKGLEWVSAIMYDSSSTFYADSVKGRFTISRDNSKNTLYLQMNSLRAEDTAVYYCARINYIYKGVHFDYWGQGTLVTVSS VL: DIVLTQSPATLSLSPGERATLSCRASQIVSGYLAWYQQKPGQAPRLLIYGASSRATGVPARFSGSGSGTDFTLTISSLEPEDFATYYCQQYYNFSFTFGQGTKVEIKR | 0.8 nM | 0.07 nM | – |
| MF-T IgG (antibody, V domains shown) VH: QVELVQSGAEVKKPGESLKISCKGSGYSFTSYWIGWVRQAPGKGLEWMGIIDPGDSRTRYSPSFQGQVTISADKSISTAYLQWSSLKASDTAMYYCARGQLYGGTYMDGWGQGTLVTVSS VL: DIALTQPASVSGSPGQSITISCTGTSSDIGGYNSVSWYQQHPGKAPKLMIYGVNNRPSGVSNRFSGSKSGNTASLTISGLQAEDEADYYCSSYDIESATPVFGGGTKLTVLG | 1.5 nM | 0.27 nM | – |
| MF-226 IgG (antibody, V domains shown) VH: QVELVQSGAEVKKPGASVKVSCKASGYTFTGNYINWVRQAPGQGLEWMGIINPHGGDTKYAQKFQGRVTMTRDTSISTAYMELSSLRSEDTAVYYCARWHHGTWIFDYWGQGTLVTVSS VL: DIVLTQPPSVSGAPGQRVTISCSGSSSNIGSNYVSWYQQLPGTAPKLLIYNDNQRPSGVPDRFSGSKSGTSASLAITGLQSEDEADYYCSTYDRRTFSVFGGGTKLTVLG | 0.4 nM | 0.15 nM | – |
| MF-428 (antibody, V domains shown) VH: QVQLVESGGGLVQPGGSLRLSCAASGFTFSTYAMSWVRQAPGKGLEWVSFISGYGSSTYYADSVKGRFTISRDNSKNTLYLQMNSLRAEDTAVYYCARKMYWWSDGFDYWGQGTLVTVSS VL: DIELTQPPSVSVAPGQTARISCSGDNLRSKYAHWYQQKPGQAPVLVIYSKDNRPSGIPERFSGSNSGNTATLTISGTQAEDEADYYCSSWAHDHKVFGGGTKLTVLG | – | – | binds |
